Target: T1, GST-HrcA fusion protein (C. jejuni NCTC11168 HrcA repressor fused to glutathione S-transferase) (C. jejuni NCTC 11168, UniProt Q9PPG2 1-264)
T1 construct: HrcA heat-shock transcriptional repressor of Campylobacter jejuni NCTC 11168; also called heat-shock repressor HrcA
T1 sequence (looked up): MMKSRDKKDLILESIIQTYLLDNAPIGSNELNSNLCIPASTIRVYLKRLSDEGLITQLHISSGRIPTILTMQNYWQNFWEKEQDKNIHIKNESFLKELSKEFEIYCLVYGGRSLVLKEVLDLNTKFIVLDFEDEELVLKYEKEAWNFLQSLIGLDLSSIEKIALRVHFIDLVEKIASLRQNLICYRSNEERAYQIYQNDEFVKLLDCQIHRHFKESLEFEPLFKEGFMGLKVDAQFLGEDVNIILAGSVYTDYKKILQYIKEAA
Test: pull-down; GST-HrcA on glutathione-agarose as bait, incubated 16 h at 4 °C with pre-cleared C. jejuni NCTC11168 cytoplasmic extract in Res buffer (10 mM Tris-HCl pH 7.5, 100 mM NaCl, 20 mM KCl, 1 mM EDTA, 0.01% NP-40); GroEL detected by anti-GroEL immunoblot; GST alone as control bait
Conditions: one partner purified

B1: GroEL chaperonin of C. jejuni (natural protein, UniProt O69289 1-545, looked up)
chain: MAKEIIFSDEARNKLYEGVKKLNDAVKVTMGPRGRNVLIQKSFGAPSITKDGVSVAKEVELKDSLENMGASLVREVASKTADQAGDGTTTATVLAHAIFKEGLRNITAGANPIEVKRGMDKACEAIVAELKKLSREVKDKKEIAQVATISANSDEKIGNLIADAMEKVGKDGVITVEEAKSINDELNVVEGMQFDRGYLSPYFITNAEKMTVELSSPYILLFDKKITNLKDLLPVLEQIQKTGKPLLIIAEDIEGEALATLVVNKLRGVLNISAVKAPGFGDRRKAMLEDIAILTGGEVISEELGRTLESATIQDLGQASSVIIDKDNTTIVNGAGEKANIDARVNQIKAQIAETTSDYDREKLQERLAKLSGGVAVIKVGAATETEMKEKKDRVDDALSATKAAVEEGIVIGGGAALIKAKAKIKLDLQGDEAIGAAIVERALRAPLRQIAENAGFDAGVVVNSVENAKDENTGFDAAKGEYVNMLESGIIDPVKVERVALLNAVSVASMLLTTEATISEIKEDKPTMPDMSGMGGMGGMGGMM
notes: GroEL (60 kDa chaperonin) of Campylobacter jejuni NCTC 11168, endogenous protein detected by anti-GroEL immunoblot; Only GroEL was detected in the pull-down; also called GroE chaperonin; source: endogenous, cytoplasmic protein extract of C. jejuni NCTC11168 wild type
fold intensity of the GroEL band against the GST control pull-down: 6.2 fold

Source: paper PMC8533110, “Feeling the Heat: The Campylobacter jejuni HrcA Transcriptional Repressor Is an Intrinsic Protein Thermosensor” (Biomolecules, 2021)
